Target: N-terminal eGFP fused human CHFR mutant lacking forkhead-associated domain (human) (UniProt Q96EP1)
Test: co-IP; anti-GFP agarose beads (GFP-Trap) pull-down from lysates of HMEC transfected with eGFP-CHFR constructs, 48 h after transfection; 150 ug lysate protein, 2 h at 4 C; immunoblot for endogenous VE-cadherin; ratio of VE-cadherin to GFP-CHFR quantified

Chain of UniProt Q96EP1 (Q96EP1 whole entry, change not shown, the tested form may be a part): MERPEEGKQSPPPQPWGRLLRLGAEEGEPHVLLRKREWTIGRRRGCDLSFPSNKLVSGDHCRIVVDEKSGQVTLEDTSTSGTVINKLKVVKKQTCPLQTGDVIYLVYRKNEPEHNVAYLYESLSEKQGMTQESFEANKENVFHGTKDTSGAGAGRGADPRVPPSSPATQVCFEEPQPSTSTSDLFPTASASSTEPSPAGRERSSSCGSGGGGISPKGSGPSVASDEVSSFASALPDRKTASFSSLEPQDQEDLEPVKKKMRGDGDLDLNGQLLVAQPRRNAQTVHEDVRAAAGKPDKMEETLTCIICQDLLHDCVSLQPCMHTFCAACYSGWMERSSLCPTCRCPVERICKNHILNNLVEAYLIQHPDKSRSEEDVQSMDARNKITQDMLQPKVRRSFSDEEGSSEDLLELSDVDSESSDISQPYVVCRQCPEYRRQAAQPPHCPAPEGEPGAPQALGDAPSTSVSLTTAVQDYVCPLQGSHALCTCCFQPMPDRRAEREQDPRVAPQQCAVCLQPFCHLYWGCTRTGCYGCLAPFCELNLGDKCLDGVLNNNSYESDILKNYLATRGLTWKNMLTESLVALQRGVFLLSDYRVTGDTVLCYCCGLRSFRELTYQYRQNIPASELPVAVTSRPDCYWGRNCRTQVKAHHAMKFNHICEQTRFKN

fold binding against WT-CHFR: 2 fold
B1: VE-cadherin, endogenous in HMEC (natural protein)
chain: DWIWNQMHIDEEKNTSLPHHVGKIKSSVSRKNAKYLLKGEYVGKVFRVDAETGDVFAIERLDRENISEYHLTAVIVDKDTGENLETPSSFTIKVHDVNDNWPVFTHRLFNASVPESSAVGTSVISVTAVDADDPTVGDHASVMYQILKGKEYFAIDNSGRIITITKSLDREKQARYEIVVEARDAQGLRGDSGTATVLVTLQDINDNFPFFTQTKYTFVVPEDTRVGTSVGSLFVEDPDEPQNRMTKYSILRGDYQDAFTIETNPAHNEGIIKPMKPLDYEYIQQYSFIVEATDPTIDLRYMSPPAGNRAQVIINITDVDEPPIFQQPFYHFQLKENQKKPLIGTVLAMDPDAARHSIGYSIRRTSDKGQFFRVTKKGDIYNEKELDREVYPWYNLTVEAKELDSTGTPTGKESIVQVHIEVLDENDNAPEFAKPYQPKVCENAVHGQLVLQISAIDKDITPRNVKFKFILNTENNFTLTDNHDNTANITVKYGQFDREHTKVHFLPVVISDNGMPSRTGTSTLTVAVCKCNEQGEFTFCEDMAAQVGVSIQAVVAILLCILTITVITLLIFLRRRLRKQARAHGKSVPEIHEQLVTYDEEGGGEMDTTSYDVSVLNSVRRGGAKPPRPALDARPSLYAQVQKPPRHAPGAHGGPGEMAAMIEVKKDEADHDGDGPPYDTLHIYGYEGSESIAESLSSLGTDSSDSDVDYDFLNDWGPRFKMLAELYGSDPREELLY

Source: publication PMC10584835
